Biological target: the molecule itself
Assay: crystal structure

B1: YisK with C-terminal histidine tag (enzyme, B. subtilis 168, UniProt O06724 1-301, looked up)
chain: MKFATGELYNRMFVGLIIDDEKIMDLQKAEKKLFELETIPGSLIECIAEGDKFVAHARQLAEWAKKPNDELGSFMYSLSEVKLHAPIPKPSKNIICIGKNYRDHAIEMGSEADIPEHPMVFTKSPVTVTGHGDIVKSHEEVTSQLDYEGELAVVIGKSGTRISKEDAYDHVFGYTIVNDITARDLQKRHKQFFIGKSLDTTCPMGPVLVHKSSIQEPERLKVETRVNGELRQSGSASDMIFSIPELIETLSKGMTLEAGDIIATGTPSGVGKGFTPPKFLRSGDKIDITIDPIGTLSNQIG
- binding result: binds

Reference: doi:10.1101/2023.06.26.546597 (bioRxiv, 2023)
